Reference: article PMC6250052 (Neurobiology of disease, 2018)
Read-outs that look alike come from different tables or passages of the source.

B1: purified hCypD protein (human Cyclophilin D) (enzyme)
chain: not shown
B2: glutathione S-transferase (GST)-tagged OSCP (human oligomycin sensitivity conferring protein) (natural protein, UniProt P48047 24-213, looked up)
chain: FAKLVRPPVQVYGIEGRYATALYSAASKQNKLEQVEKELLRVAQILKEPKVAASVLNPYVKRSIKVKSLNDITAKERFSPLTTNLINLLAENGRLSNTQGVVSAFSTMMSVHRGEVPCTVTSASPLEEATLSELKTVLKSFLSQGQVLKLEAKTDPSILGGMIVRIGEKYVDMSVKTKIQKLGRAMREIV

Legend:
Assay in all cases: pull-down
[1] = molecular target: B2
[2] = molecular target: B2; remark: listed apart in the source
Aβ peptide (ApexBio) [3] = molecular target: Aβ peptide (ApexBio)
Aβ peptide (ApexBio) [4] = molecular target: Aβ peptide (ApexBio); remark: listed apart in the source

Row | Kd [1] [nM] | Kd [2] [nM] | Kd (Aβ peptide (ApexBio) [3]) [nM] | Kd (Aβ peptide (ApexBio) [4]) [nM] | Binder
1 | 100 ± 15 | 60 ± 1 |  |  | B1
2 |  |  | 510 ± 71 | 88 ± 43 | B2
